The target of experiment [1] is T1, human DLL4 aa 1-96 fused to Fc (human, UniProt Q9NR61 27-96).
T1 construct: Printed as aa 1-96; not shown: Fc protein (human Fc by the capture and detection reagents)
The experiment can be described thus: ELISA, Fc fusion captured by anti-human Fc. The procedure: (§1) To identify antibodies that recognize specific regions of the DLL4 extracellular domain, epitope mapping was performed. Mammalian expression plasmid vectors comprising a CMV promoter upstream of polynucleotides that encode a nested series of deletion fragments of the extracellular domain of DLL4 fused to Fc protein were generated using standard recombinant DNA technology. Additional constructs that encoded fragments of DLL4 that were chimera of human and mouse DLL4 fused to Fc protein were also generated using standard recombinant DNA technology. A further series of DLL4-fc fusion proteins were designed that included specific amino acid substitutions. These recombinant fusion proteins were expressed in transiently transfected HEK 293 cells from which conditioned medium was collected twenty-four to forty-eight hours post-transfection for ELISA. The DLL4 fusion protein fragments were captured on plates coated with anti-human Fc antibodies. Anti-DLL4 antibodies were then allowed to interact with the bound DLL4 fragments and binding was measured by subsequent incubation with HRP conjugated anti-mouse antibody and detection of HRP activity (FIG. 3A). […] Additionally, anti-DLL4 mAbs were examined for binding to DLL4 fusion protein fragments by western blot analysis (FIG. 3B).
(In general: An ELISA detects its analyte on a solid surface through an enzyme-linked reagent.)

Experiment [2] addresses T2, human DLL4 aa 1-154 fused to Fc (human, UniProt Q9NR61 27-154).
T2 construct: predicted signal peptide 1-26 left out; also called h-DLL4 dom1-2; not shown: Fc protein
The experiment can be described thus: ELISA, Fc fusion captured by anti-human Fc. The procedure: as §1

Experiment [3] deals with T3, human DLL4 aa 1-217 fused to Fc (human, UniProt Q9NR61 27-217).
T3 construct: predicted signal peptide 1-26 left out; also called hDLL4dom1-3; not shown: Fc protein
The experiment can be described thus: ELISA, Fc fusion captured by anti-human Fc. The procedure:
as §1

The target of experiment [4] is T4, human DLL4 aa 1-251 fused to Fc (human, UniProt Q9NR61 27-251).
T4 construct: Predicted signal peptide 1-26 left out; also called aa 1-251 (printed as 1-251); not shown: Fc protein
Kind of experiment: ELISA, Fc fusion captured by anti-human Fc. The procedure:
as §1

The target in experiment [5] is T5, human DLL4 aa 1-283 fused to Fc (human, UniProt Q9NR61 27-283).
T5 construct: Predicted signal peptide 1-26 left out; not shown: Fc protein
Kind of experiment: ELISA, Fc fusion captured by anti-human Fc. On the procedure:
as §1

Experiment [6] concerns the target T6, human DLL4 aa 1-323 fused to Fc (human, UniProt Q9NR61 27-323).
T6 construct: Predicted signal peptide 1-26 left out; also called aa 1-323 (printed as 1-323); not shown: Fc protein
The experiment can be described thus: ELISA, Fc fusion captured by anti-human Fc. On the procedure: as §1

In another experiment the target is T7, murine DLL4-Fc (murine, UniProt Q9JI71 27-525, limits assumed).
T7 construct: also called m-DLL4; not shown: Fc
T7 sequence (Q9JI71 27-525 limits assumed): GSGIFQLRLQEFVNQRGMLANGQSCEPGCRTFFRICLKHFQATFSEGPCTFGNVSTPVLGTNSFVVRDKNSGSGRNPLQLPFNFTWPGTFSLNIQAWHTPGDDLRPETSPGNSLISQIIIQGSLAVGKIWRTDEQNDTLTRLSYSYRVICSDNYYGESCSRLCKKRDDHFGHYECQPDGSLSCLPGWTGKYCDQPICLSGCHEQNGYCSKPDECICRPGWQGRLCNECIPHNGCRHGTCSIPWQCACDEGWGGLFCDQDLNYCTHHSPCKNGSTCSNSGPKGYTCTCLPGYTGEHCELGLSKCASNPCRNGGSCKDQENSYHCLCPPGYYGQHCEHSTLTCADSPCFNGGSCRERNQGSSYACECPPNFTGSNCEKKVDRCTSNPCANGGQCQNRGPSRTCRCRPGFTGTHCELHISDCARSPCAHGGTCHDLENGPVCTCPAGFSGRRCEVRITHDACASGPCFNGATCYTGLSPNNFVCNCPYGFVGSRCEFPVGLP
The experiment can be described thus: FACS-based assay with human or murine DLL4-Fc (FIG. 2B). An excerpt:
Binding was detected by fluorescently labeled anti-Fc and analyzed by FACS, with high fluorescence intensity indicative of binding between DLL4 and Notch1 expressing cells.

Experiment [7] addresses T8, human DLL4, full-length, on the surface of transfected cells (human, UniProt Q9NR61 27-685).
T8 construct: whole, on cells; HEK 293 cells (transient with GFP, or stably transduced) and 3T3 cells overexpressing human DLL4; also called native cell-surface DLL4 protein; Delta-like ligand 4
The experiment can be described thus: FACS on HEK 293 cells co-transfected with full-length DLL4 and GFP.

For experiment [8], the target named is T9, DLL4 antigen protein (recombinant fragment of the extracellular domain of human DLL4, amino acids 1-522, Fc- … (human, UniProt Q9NR61 27-522)).
T9 construct: also called Human DLL4 Antigen; not shown: human Fc-tag or histidine-tag
The experiment can be described thus: Biacore; antibody purified by protein A; DLL4 form and format not stated.

Experiment [9] has as its target T9, DLL4 antigen protein (recombinant …). The experiment can be described thus: ELISA of conditioned medium, HEK 293 cells cotransfected with the murine 21M18 light chain. The procedure: The functionality of each candidate variant humanized heavy and light chain was tested by cotransfection into mammalian cells.
For experiment [10] the target is unchanged. The experiment can be described thus: ELISA of conditioned medium, HEK293 cells. An excerpt: These heavy chains were cotransfected into HEK293 cells with L2, and conditioned media was again assayed.

As a reminder, the Kd is the free concentration of one partner at which half of the binding sites on the other are occupied at equilibrium, for simple one-to-one binding.

B1: murine monoclonal antibody 21M18 (antibody, V domains shown)
VH: EVQLQQSGPELVKTGASVKISCKASGYSFTAYYIHWVKQSHGKSLEWIGYISCYNGATNYNQKFKGKATFTVDTSSSTAFMQFNSLTSEDSAVYYCARDYDYDVGMDYWGQGTSVTVSS
VL: not shown
notes: Hybridoma-derived mouse antibody; both are alignment entries; also called m21M18; anti-DLL4 21M18
On to B1, for which the binding result in [1] was “no binding”; in experiment [2], “no binding”; in experiment [3], “binds”; in experiment [4], “binds”; in experiment [5], “binds”; in [6], “binds”. For the same molecule, the binding result with murine DLL4-Fc is recorded as “no binding”; in experiment [7], “binds”.

B2: humanized 21M18 variant H2L2 (antibody, V domains shown)
VH: QVQLVQSGAEVKKPGASVKISCKASGYSFTAYYIHWVKQAPGQGLEWIGYISCYNGATNYNQKFKGRVTFTTDTSTSTAYMELRSLRSDDTAVYYCARDYDYDVGMDYWGQGTLVTVSS
VL: DIVMTQSPDSLAVSLGERATISCRASESVDNYGISFMKWFQQKPGQPPKLLIYAASNQGSGVPDRFSGSGSGTDFTLTISSLQAEDVAVYYCQQSKEVPWTFGGGTKVEIK
notes: also called 21M18 H2L2; 21M18 H2 with 21M18 L2
On to B2, for which the Kd in experiment [8] is approximately 0.33 nM.

B3: 21M18 H2 humanized heavy chain cotransfected with the murine 21M18 light chain (antibody, V domains shown)
VH: QVQLVQSGAEVKKPGASVKISCKASGYSFTAYYIHWVKQAPGQGLEWIGYISCYNGATNYNQKFKGRVTFTTDTSTSTAYMELRSLRSDDTAVYYCARDYDYDVGMDYWGQGTLVTVSS
VL: not shown
notes: Tested as conditioned medium of HEK 293 cells; heavy chain on human IgG2 constant region; also called 21M18 H2 (with murine 21M18 light chain)
For B3, the binding result in [9] is “binds”.

B4: humanized 21M18 H7L2 (antibody, human IgG2, V domains shown)
VH: QVQLVQSGAEVKKPGASVKISCKASGYSFTAYYIHWVKQAPGQGLEWIGYISSYNGATNYNQKFKGRVTFTTDTSTSTAYMELRSLRSDDTAVYYCARDYDYDVGMDYWGQGTLVTVSS
VL: DIVMTQSPDSLAVSLGERATISCRASESVDNYGISFMKWFQQKPGQPPKLLIYAASNQGSGVPDRFSGSGSGTDFTLTISSLQAEDVAVYYCQQSKEVPWTFGGGTKVEIK
notes: Variant of H2 with Kabat 52a Cys changed to Ser; also called H7L2 21M18; ATCC PTA-8425
For the molecule B4, the binding result in [10] is given as “binds”.

B5: humanized 21M18 H9L2 (antibody, human IgG2, V domains shown)
VH: QVQLVQSGAEVKKPGASVKISCKASGYSFTAYYIHWVKQAPGQGLEWIGYISVYNGATNYNQKFKGRVTFTTDTSTSTAYMELRSLRSDDTAVYYCARDYDYDVGMDYWGQGTLVTVSS
VL: DIVMTQSPDSLAVSLGERATISCRASESVDNYGISFMKWFQQKPGQPPKLLIYAASNQGSGVPDRFSGSGSGTDFTLTISSLQAEDVAVYYCQQSKEVPWTFGGGTKVEIK
notes: Variant of H2 with Kabat 52a Cys changed to Val; also called ATCC PTA-8427
With B5, the binding result in experiment [10] is on record as “binds”.

The record behind these values is patent US20190060453A1 (ONCOMED PHARMACEUTICALS, published 2019).
